{"source": "patent US20240076689A1", "about": "“VIRAL VECTORS AND NUCLEIC ACIDS FOR REGULATED GENE THERAPY” (Boehringer Ingelheim International GmbH, priority 2020, published 2024)", "molecules": {"B1": {"name": "catalytically inactive K19 switch: control plasmid harboring a catalytically inactive, non-cleaving K19 switch (SEQ ID No. 45) (nucleic acid)", "chain": "GGCGCGTCCTGGATTCGTGGTAAAACATACCAGATTTCGATCTGGAGAGGTGAAGAATACGACCACCTACTACATCCAGCTGATGAGTCCCAAATAGGACGAGACGCGCT", "modifications": "the letters are possibly those of the target site"}, "B2": {"name": "K19: Tet-responsive aptazyme: tetracycline aptamer plus hammerhead ribozyme N79 (Beilstein et al. 2015), SEQ ID NO:9/10; tested in active-switch plasmids (nucleic acid)", "chain 1": "B1 chain with G103A", "chain 2": "GGCGCGUCCUGGAUUCGUGGUAAAACAUACCAGAUUUCGAUCUGGAGAGGUGAAGAAUACGACCACCUACUACAUCCAGCUGAUGAGUCCCAAAUAGGACGAAACGCGCU", "modifications": "chemistry not fully specified; one strand in two spellings; the letters are possibly those of the target site"}}, "key": {"[1]": {"experiment": "Tet plasma concentration in the mIL-12 time course study", "conditions": "female, C57Bl/6, mouse, in vivo"}, "[2]": {"system": "IL-12 and IFNγ plasma levels, body weight, liver enzymes", "experiment": "Dose-finding study to determine PK and safety of Tet-switch-controlled IL-12 (FIG. 18)", "conditions": "30 mg/kg i.p. twice daily for 5 consecutive days"}, "[3]": {"conditions": "four 100 mg/kg Tet doses in 8 h intervals"}, "[4]": {"system": "eGFP expression in HEK293 cells", "experiment": "Tet-dependent eGFP expression from K19 constructs in transfected HEK293 cells", "conditions": "HEK293, independent of Tet"}, "[5]": {"system": "eGFP and sNLuc expression in HEK293 cells", "experiment": "K19 riboswitch kinetics in HEK293 cells (qPCR, fluorescence, Western blot, sNLuc)"}}, "note": "Numbering of substitutions follows the chain as printed."}
{"molecule": "CN(C)[C@@H]1C(O)=C(C(N)=O)C(=O)[C@@]2(O)C(O)=C3C(=O)c4c(O)cccc4[C@@](C)(O)[C@H]3C[C@@H]12", "note": "[Tet, tetracycline]", "values": [{"measurement": "concentration at 8 h", "setting": "[1]; 10 mg/kg", "value": 100, "unit": "nM"}, {"measurement": "concentration at 8 h", "setting": "[1]; 30 mg/kg", "value": 750, "unit": "nM"}, {"measurement": "tolerability of Tet (in words)", "setting": "[2]", "value": "well tolerated"}, {"measurement": "other signs of toxicity", "setting": "[3]", "value": "no other signs of toxicity were observed"}]}
{"molecule": "B1", "values": [{"measurement": "steady eGFP expression level, of constitutive signal", "setting": "[4]", "value": "about 90%"}]}
{"molecule": "B2", "values": [{"measurement": "onset of eGFP expression induction on the mRNA level after Tet addition", "setting": "[5]; HEK293, 50 μM Tet", "value": 15, "unit": "min"}, {"measurement": "onset of increase in direct eGFP fluorescence signal after Tet addition", "setting": "[5]; HEK293, 50 μM Tet", "value": "two"}, {"measurement": "time to full induction on the mRNA level", "setting": "[5]; HEK293, 50 μM Tet", "value": "four"}, {"measurement": "reversibility upon Tet retraction (in words)", "setting": "[5]; HEK293 previously grown in presence of Tet", "value": "relative decrease in sNLuc expression was observed"}, {"measurement": "Tet-induced sNLuc increase detected after addition", "setting": "[5]; HEK293 supernatant", "value": 2, "unit": "h"}, {"measurement": "time to saturation of sNLuc increase", "setting": "[5]; HEK293 supernatant", "value": "4 to 8", "unit": "h"}]}
